Positions count from the first letter of the chain named.
B1: consensus (structured_RNA)
RNA: GGUCACGUCUCAAUCAACUCCCAAAGGCCCUUUUCAGGGCCACCCAUCAACAGCUCGCAGUCAAG
B2: consensus (structured_RNA)
RNA: B1 RNA with C29U, U33C, C35G
B3: consensus (structured_RNA)
RNA: B1 RNA with C28U, C30U, C35A
B4: consensus (structured_RNA)
RNA: B1 RNA with C29U, C30U, G37A, G38A
B5: consensus (structured_RNA)
RNA: B1 RNA with C28U, U33C, C35G
B6: consensus (structured_RNA)
RNA: B1 RNA with C30U, C35G
B7: consensus (structured_RNA)
RNA: B1 RNA with C29U, C30U, C35A
B8: consensus (structured_RNA)
RNA: B1 RNA with C29U, C35A, G38A
B9: consensus (structured_RNA)
RNA: B1 RNA with C28U, C30U, U33C, G37A, G39A
B10: consensus (structured_RNA)
RNA: B1 RNA with C30U, U33C
B11: consensus (structured_RNA)
RNA: B1 RNA with C30U, U33C, C35U
B12: consensus (structured_RNA)
RNA: B1 RNA with C29U, C30U, U33C, C35A, G38A
B13: consensus (structured_RNA)
RNA: B1 RNA with C28U, C30U, U33C, C35U, G39A
B14: consensus (structured_RNA)
RNA: B1 RNA with C30U, U33C, C35A
B15: consensus (structured_RNA)
RNA: B1 RNA with C30U, C35U
B16: consensus (structured_RNA)
RNA: B1 RNA with C29U, C30U, C35U, G38A
B17: consensus (structured_RNA)
RNA: B1 RNA with C28U, C29U, U33C, C35U, G38A
B18: consensus (structured_RNA)
RNA: B1 RNA with C28U, C30U, U33C, G39A
B19: consensus (structured_RNA)
RNA: B1 RNA with C28U, C29U, C30U, C35G, G37A, G38A
B20: consensus (structured_RNA)
RNA: B1 RNA with C28U, C30U, C35U
B21: consensus (structured_RNA)
RNA: B1 RNA with C28U, C30U, C35A, G39A
B22: consensus (structured_RNA)
RNA: B1 RNA with C29U, C30U, G38A
B23: consensus (structured_RNA)
RNA: B1 RNA with C28U, C29U, C30U, C35G, G37A, G38A, G39A
B24: consensus (structured_RNA)
RNA: B1 RNA with C28U, C29U, C30U, C35U, G37A, G38A
B25: consensus (structured_RNA)
RNA: B1 RNA with C29U, C30U
B26: consensus (structured_RNA)
RNA: B1 RNA with C30U, C35U, G37A
B27: consensus (structured_RNA)
RNA: B1 RNA with C29U, C30U, U33C, C35U
B28: consensus (structured_RNA)
RNA: B1 RNA with C28U, C30U, U33C, C35G, G37A
B29: consensus (structured_RNA)
RNA: B1 RNA with C28U, C30U, U33C, C35A, G39A
B30: consensus (structured_RNA)
RNA: B1 RNA with C28U, C30U
B31: consensus (structured_RNA)
RNA: B1 RNA with C28U, C30U, U33C
B32: consensus (structured_RNA)
RNA: B1 RNA with C28U, C29U, C30U, U33C, C35U, G37A, G38A
B33: consensus (structured_RNA)
RNA: B1 RNA with C28U, C29U, C30U, G38A, G39A
B34: consensus (structured_RNA)
RNA: B1 RNA with C28U, C29U, U33C, C35U, G39A
B35: consensus (structured_RNA)
RNA: B1 RNA with C29U
B36: consensus (structured_RNA)
RNA: B1 RNA with C30U, C35A
B37: consensus (structured_RNA)
RNA: B1 RNA with C29U, C30U, U33C
B38: consensus (structured_RNA)
RNA: B1 RNA with C28U, C29U, C35U
B39: consensus (structured_RNA)
RNA: B1 RNA with C28U, C29U, C30U, U33C, C35G, G37A, G38A, G39A
B40: consensus (structured_RNA)
RNA: B1 RNA with C28U, C29U, C30U, G38A
B41: consensus (structured_RNA)
RNA: B1 RNA with C28U, C29U, C30U, U33C, C35A, G38A, G39A
B42: consensus (structured_RNA)
RNA: B1 RNA with C28U, C29U, C30U, C35A, G38A, G39A
B43: consensus (structured_RNA)
RNA: B1 RNA with C29U, C30U, C35U
B44: consensus (structured_RNA)
RNA: B1 RNA with C29U, C30U, U33C, C35G, G37A
B45: consensus (structured_RNA)
RNA: B1 RNA with C28U, C29U, C30U, U33C, G37A, G38A
B46: consensus (structured_RNA)
RNA: B1 RNA with C35A
B47: consensus (structured_RNA)
RNA: B1 RNA with C28U, C35A, G39A
B48: consensus (structured_RNA)
RNA: B1 RNA with C30U, U33C, G37A
B49: consensus (structured_RNA)
RNA: B1 RNA with C29U, C30U, C35A, G38A
B50: consensus (structured_RNA)
RNA: B1 RNA with C30U
B51: consensus (structured_RNA)
RNA: B1 RNA with C28U, G39A
B52: consensus (structured_RNA)
RNA: B1 RNA with C28U, C30U, C35U, G39A
B53: consensus (structured_RNA)
RNA: B1 RNA with C29U, C30U, U33C, G38A
B54: consensus (structured_RNA)
RNA: B1 RNA with C30U, U33C, C35U, G37A
B55: consensus (structured_RNA)
RNA: B1 RNA with C29U, C30U, U33C, C35A
B56: consensus (structured_RNA)
RNA: B1 RNA with C28U, C30U, U33C, C35A
B57: consensus (structured_RNA)
RNA: B1 RNA with C28U, C30U, G39A
B58: consensus (structured_RNA)
RNA: B1 RNA with C28U, C30U, C35A, G37A, G39A

Molecular target: GST-SBP-SLBP (stem-loop binding protein) (Homo sapiens, UniProt Q14493 1-270)
Experiment: targeted RNA Bind-n-Seq; RBNS binding buffer: 25 mM Tris pH 7.5, 150 mM KCl, 3 mM MgCl2, 0.1% Tween, 0.5 mg/mL BSA, 1 mM DTT; 27 nM protein, 750 pM RNA pool; temperature not stated; high values mean tight binding
Conditions: protein: recombinant; tags: N-terminal GST and SBP (pGEX6P1-SBP)
In short: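 The GST-SBP-tagged protein was expressed in Rosetta(DE3) pLysS E. coli, glutathione-purified and incubated at 27 nM with 750 pM of a designed, T7-transcribed RNA oligo pool in RBNS binding buffer. Bound RNA was reverse transcribed with a 10-nucleotide barcoded primer, PCR-amplified and sequenced on a MiSeq with 200-cycle paired-end reads. Reads were joined with FLASH, aligned with HISAT2 and collapsed by barcode. The binding signal is the DEseq log2 fold change of read counts per sequence.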

Binder | binding signal
B1 | 3.92 ± 0.166 log2 fold change
B2 | 2.28 ± 0.154 log2 fold change
B3 | 1.43 ± 0.177 log2 fold change
B4 | 3.5 ± 0.119 log2 fold change
B5 | 2.11 ± 0.151 log2 fold change
B6 | 1.42 ± 0.169 log2 fold change
B7 | 1.95 ± 0.161 log2 fold change
B8 | 3.5 ± 0.152 log2 fold change
B9 | 3.5 ± 0.113 log2 fold change
B10 | 1.93 ± 0.129 log2 fold change
B11 | 1.28 ± 0.157 log2 fold change
B12 | 1.33 ± 0.16 log2 fold change
B13 | 0.816 ± 0.166 log2 fold change
B14 | 2.22 ± 0.143 log2 fold change
B15 | 1.9 ± 0.154 log2 fold change
B16 | 0.854 ± 0.146 log2 fold change
B17 | 2.28 ± 0.146 log2 fold change
B18 | 1.31 ± 0.141 log2 fold change
B19 | 1.56 ± 0.147 log2 fold change
B20 | 0.724 ± 0.177 log2 fold change

Binder | binding signal
B21 | 1.91 ± 0.158 log2 fold change
B22 | 1.75 ± 0.155 log2 fold change
B23 | 2.28 ± 0.151 log2 fold change
B24 | 2.23 ± 0.157 log2 fold change
B25 | 1.99 ± 0.171 log2 fold change
B26 | 3.59 ± 0.129 log2 fold change
B27 | 0.933 ± 0.168 log2 fold change
B28 | 2.15 ± 0.13 log2 fold change
B29 | 1.6 ± 0.134 log2 fold change
B30 | 1.25 ± 0.15 log2 fold change
B31 | 0.935 ± 0.161 log2 fold change
B32 | 1.97 ± 0.127 log2 fold change
B33 | 0.928 ± 0.165 log2 fold change
B34 | 2.26 ± 0.144 log2 fold change
B35 | 3.57 ± 0.122 log2 fold change
B36 | 2.24 ± 0.139 log2 fold change
B37 | 1.31 ± 0.138 log2 fold change
B38 | 2.15 ± 0.148 log2 fold change
B39 | 2.15 ± 0.131 log2 fold change
B40 | 0.623 ± 0.163 log2 fold change

Binder | binding signal
B41 | 0.796 ± 0.151 log2 fold change
B42 | 0.759 ± 0.157 log2 fold change
B43 | 1.3 ± 0.179 log2 fold change
B44 | 2 ± 0.133 log2 fold change
B45 | 2.22 ± 0.14 log2 fold change
B46 | 3.52 ± 0.16 log2 fold change
B47 | 3.61 ± 0.128 log2 fold change
B48 | 3.84 ± 0.117 log2 fold change
B49 | 1.64 ± 0.15 log2 fold change
B50 | 2.4 ± 0.137 log2 fold change
B51 | 3.59 ± 0.127 log2 fold change
B52 | 0.994 ± 0.148 log2 fold change
B53 | 0.979 ± 0.14 log2 fold change
B54 | 3.55 ± 0.131 log2 fold change
B55 | 1.52 ± 0.156 log2 fold change
B56 | 1.09 ± 0.185 log2 fold change
B57 | 1.9 ± 0.145 log2 fold change
B58 | 3.5 ± 0.12 log2 fold change
